Results as given in PMC7337490.

Molecular target: survivin;borealin 10-109;INCENP 1-80 (CPI80) (human;human;human) (UniProt O15392+Q53HL2+Q9NQS7)
Test: EMSA
Conditions: shift between 2 and 3 uM protein; 100 mM NaCl, 20 mM Tris-HCl pH 7.4, 1 mM DTT, 2 h on ice; MST 0.04 uM duplex, 0.1-200 uM protein; EMSA 0.15 pmol plasmid in 20 ul, 0.8% agarose

Chain of survivin;borealin 10-109;INCENP 1-80 (CPI80) (human;human;human) (O15392 whole entry, chain 1 of 3): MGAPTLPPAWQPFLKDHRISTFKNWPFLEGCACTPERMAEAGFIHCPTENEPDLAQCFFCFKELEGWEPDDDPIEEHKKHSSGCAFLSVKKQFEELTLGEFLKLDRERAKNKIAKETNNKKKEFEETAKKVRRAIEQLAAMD
Chain of survivin;borealin 10-109;INCENP 1-80 (CPI80) (human;human;human) (Q53HL2 10-109, chain 2 of 3): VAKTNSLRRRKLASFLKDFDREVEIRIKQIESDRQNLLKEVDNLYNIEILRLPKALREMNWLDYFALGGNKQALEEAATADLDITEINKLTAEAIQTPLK
Chain of survivin;borealin 10-109;INCENP 1-80 (CPI80) (human;human;human) (Q9NQS7 1-80, chain 3 of 3): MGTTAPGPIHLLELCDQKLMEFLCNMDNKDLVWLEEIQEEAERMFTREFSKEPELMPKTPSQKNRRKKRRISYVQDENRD

Substance: BamHI-linearized pBluescript (2.9 kb)
- K half: 3000 nM
